Measurements taken from the supplement of paper PMC9428881.
± gives the standard error.

Assay: background-corrected fluorescence of 3'-dye-labeled ssDNA relative to brightest sequence (3'-GCGCG) (fraction); higher = brighter dye fluorescence (less quenching)
Outline: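 Each of 1024 permuted pentamers was synthesized as single-stranded DNA on glass slides by light-directed phosphoramidite chemistry, with a 3' Cy3 or Cy5 dye alongside. Arrays were scanned at 532 or 635 nm before and after overnight deprotection with ethylenediamine/ethanol. Values average 10 features per array across at least 3 syntheses. The fluorescence readout, with unlabeled-oligo background removed, is given relative to the brightest sequence.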

Sequence | background-corrected fluorescence (dye: Cy3 (3' terminal)) | background-corrected fluorescence (dye: Cy5 (3' terminal))
TTTTTTGATCATGCTGCTGATTTTTTTTTTTTTTTCGAAC [CAAGC] | 0.48 ± 0.039 | 0.366 ± 0.022
TTTTTTCATCATCATGCGCATTTTTTTTTTTTTTTGGGAT [TAGGG] | 0.617 ± 0.027 | 0.506 ± 0.024
TTTTTTGCTGAGCATCATGATTTTTTTTTTTTTTTACTGC [CGTCA] | 0.491 ± 0.033 | 0.365 ± 0.028
TTTTTGCATGCTGAGCATGCTTTTTTTTTTTTTTTTACTA [ATCAT] | 0.502 ± 0.027 | 0.388 ± 0.028
TTTTTTGATGCGCATGCTCATTTTTTTTTTTTTTTCATAG [GATAC] | 0.521 ± 0.02 | 0.422 ± 0.027
TTTTTGCAGCATGCTCATGATTTTTTTTTTTTTTTTTAGC [CGATT] | 0.506 ± 0.028 | 0.385 ± 0.023
TTTTTGCATCAGCAGCATGCTTTTTTTTTTTTTTTTGTTA [ATTGT] | 0.51 ± 0.02 | 0.415 ± 0.023
TTTTTTGAGCAGCATCAGCATTTTTTTTTTTTTTTCTTGT [TGTTC] | 0.604 ± 0.019 | 0.429 ± 0.024
TTTTTTGAGCATGCGCAGCATTTTTTTTTTTTTTTCTATT [TTATC] | 0.527 ± 0.047 | 0.402 ± 0.056
TTTTTTGCTCATGCGCAGCATTTTTTTTTTTTTTTAGATT | 0.565 ± 0.035 | 0.41 ± 0.018
TTTTTGCATGCTGATGATGCTTTTTTTTTTTTTTTTACCA [ACCAT] | 0.43 ± 0.017 | 0.364 ± 0.02
TTTTTGCATGCGCATGCTGCTTTTTTTTTTTTTTTTATAA [AATAT] | 0.55 ± 0.038 | 0.441 ± 0.069
TTTTTTGATCAGCATCATGATTTTTTTTTTTTTTTCGTGC | 0.504 ± 0.033 | 0.397 ± 0.027
TTTTTGCATGCTGCTGCGCATTTTTTTTTTTTTTTTAAAT | 0.612 ± 0.027 | 0.454 ± 0.038
TTTTTTCATCATGCTGCTCATTTTTTTTTTTTTTTGGAAG [GAAGG] | 0.593 ± 0.033 | 0.445 ± 0.03
TTTTTTCATGCTCATCAGCATTTTTTTTTTTTTTTGAGGT [TGGAG] | 0.708 ± 0.038 | 0.56 ± 0.05
TTTTTTGCTCATCATGATCATTTTTTTTTTTTTTTAGGCG [GCGGA] | 0.633 ± 0.026 | 0.521 ± 0.049

Sequence | background-corrected fluorescence (dye: Cy3 (3' terminal)) | background-corrected fluorescence (dye: Cy5 (3' terminal))
TTTTTTCATGCTGCTGAGCATTTTTTTTTTTTTTTGAACT [TCAAG] | 0.5 ± 0.016 | 0.36 ± 0.025
TTTTTTCATGCTCAGCATGCTTTTTTTTTTTTTTTGAGTA [ATGAG] | 0.603 ± 0.026 | 0.486 ± 0.035
TTTTTTCAGCATCATCATGCTTTTTTTTTTTTTTTGTGGA [AGGTG] | 0.702 ± 0.022 | 0.606 ± 0.037
TTTTTGCAGCAGCATGCGCATTTTTTTTTTTTTTTTTTAT [TATTT] | 0.503 ± 0.033 | 0.364 ± 0.017
TTTTTTCATCATGATGAGCATTTTTTTTTTTTTTTGGCCT [TCCGG] | 0.4958 ± 0.0048 | 0.386 ± 0.035
TTTTTTGATGCTCATCATGCTTTTTTTTTTTTTTTCAGGA [AGGAC] | 0.705 ± 0.027 | 0.6 ± 0.034
TTTTTGCATCATCATGATGATTTTTTTTTTTTTTTTGGCC [CCGGT] | 0.46 ± 0.032 | 0.369 ± 0.03
TTTTTGCATGATCATCAGCATTTTTTTTTTTTTTTTCGGT [TGGCT] | 0.66 ± 0.028 | 0.513 ± 0.035
TTTTTTGATGCTGCTGATCATTTTTTTTTTTTTTTCAACG [GCAAC] | 0.535 ± 0.022 | 0.408 ± 0.039
TTTTTTCAGCATGATCAGCATTTTTTTTTTTTTTTGTCGT [TGCTG] | 0.581 ± 0.021 | 0.451 ± 0.032
TTTTTTCATGAGCAGCATCATTTTTTTTTTTTTTTGCTTG [GTTCG] | 0.465 ± 0.023 | 0.343 ± 0.021
TTTTTGCAGCAGCAGCATGCTTTTTTTTTTTTTTTTTTTA [ATTTT] | 0.501 ± 0.033 | 0.411 ± 0.028
TTTTTTGATGATGCTGATGATTTTTTTTTTTTTTTCCACC | 0.378 ± 0.0043 | 0.275 ± 0.026
TTTTTTGCTGCTGATCAGCATTTTTTTTTTTTTTTAACGT [TGCAA] | 0.606 ± 0.023 | 0.45 ± 0.025
TTTTTTGCTGCGCATGAGCATTTTTTTTTTTTTTTAATCT [TCTAA] | 0.483 ± 0.036 | 0.338 ± 0.02
TTTTTTCATCAGCATGCTCATTTTTTTTTTTTTTTGGTAG [GATGG] | 0.541 ± 0.021 | 0.431 ± 0.046
TTTTTGCATGAGCATGCTGATTTTTTTTTTTTTTTTCTAC [CATCT] | 0.409 ± 0.017 | 0.296 ± 0.017
